The values below are quoted from earlier work in publication PMC13242717.

One may read the Kd as the constant that tells how readily two partners part at equilibrium.

The data set concerns the target spike protein (SARS-CoV-2) (UniProt P0DTC2).

Turning to spike protein (from UniProt P0DTC2), the Kd was 300 nM.
